{"source": "patent US20190256836", "test_system": "T1, recombinant Factor C protein from Tachypleus tridentatus produced in Leishmania tarentolae", "T1 sequence": "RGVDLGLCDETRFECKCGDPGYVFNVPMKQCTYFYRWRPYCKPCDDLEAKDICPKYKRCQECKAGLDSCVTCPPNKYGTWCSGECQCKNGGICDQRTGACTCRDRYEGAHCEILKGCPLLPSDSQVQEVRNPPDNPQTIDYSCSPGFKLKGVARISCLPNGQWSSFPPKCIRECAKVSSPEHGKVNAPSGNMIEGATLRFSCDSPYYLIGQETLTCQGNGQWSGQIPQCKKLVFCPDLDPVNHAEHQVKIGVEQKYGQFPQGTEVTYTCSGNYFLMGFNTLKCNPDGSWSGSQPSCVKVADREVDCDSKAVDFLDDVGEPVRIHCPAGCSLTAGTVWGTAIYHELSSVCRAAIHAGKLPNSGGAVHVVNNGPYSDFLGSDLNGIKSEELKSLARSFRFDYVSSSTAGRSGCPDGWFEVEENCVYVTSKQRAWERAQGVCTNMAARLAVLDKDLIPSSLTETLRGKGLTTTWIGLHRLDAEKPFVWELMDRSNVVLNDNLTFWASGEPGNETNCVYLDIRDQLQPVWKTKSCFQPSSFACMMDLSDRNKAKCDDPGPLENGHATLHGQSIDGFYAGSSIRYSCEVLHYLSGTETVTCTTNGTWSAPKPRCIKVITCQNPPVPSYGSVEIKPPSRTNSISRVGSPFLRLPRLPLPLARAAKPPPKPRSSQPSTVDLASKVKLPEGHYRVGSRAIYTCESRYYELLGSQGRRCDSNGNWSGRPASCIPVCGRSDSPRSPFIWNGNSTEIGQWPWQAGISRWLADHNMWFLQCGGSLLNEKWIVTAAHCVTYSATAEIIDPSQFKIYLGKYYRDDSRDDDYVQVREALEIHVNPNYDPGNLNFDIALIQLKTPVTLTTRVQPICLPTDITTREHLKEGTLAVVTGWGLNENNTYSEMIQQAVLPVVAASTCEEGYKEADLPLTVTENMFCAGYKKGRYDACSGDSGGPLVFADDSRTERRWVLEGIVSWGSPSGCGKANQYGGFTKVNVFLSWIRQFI", "settings": "in U/mg", "data": [{"substance": "chymotrypsin", "values": [{"measurement": "specific activity of activated Factor C (hydrolysis of Boc-Val-Pro-Arg-AMC) (Units/mg protein)", "value": 0.658}]}]}
